According to PMC12416549 (2024):

T1: TNFR1 (Homo sapiens, UniProt P19438)
T1 chain: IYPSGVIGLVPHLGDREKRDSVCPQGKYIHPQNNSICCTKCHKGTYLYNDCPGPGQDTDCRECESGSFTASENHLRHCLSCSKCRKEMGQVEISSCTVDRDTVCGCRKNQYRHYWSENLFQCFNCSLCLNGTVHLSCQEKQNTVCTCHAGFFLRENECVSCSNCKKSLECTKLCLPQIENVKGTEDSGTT


Target: T1, TNFR1
Experiment: yeast display SC50

| Binder | apparent Kd (screen) [nM] |
| --- | --- |
| R92M (designed binder) MTLQELLREEALRRAEAEAFRYALELLAEKFPEQKEYLLDLAEEIESQIRSLSGVDVEDVRKFLDKEWAWVKELLAEHPAELAEVEAARAAMLAELRAEVEAKVAA | 0.593 |
| I45F (designed binder) MTLQELLREEALRRAEAEAFRYALELLAEKFPEQKEYLLDLAEEFESQIRSLSGVDVEDVRKFLDKEWAWVKELLAEHPAELAEVEAARAARLAELRAEVEAKVAA | 3.63 |
| A102W (designed binder) MTLQELLREEALRRAEAEAFRYALELLAEKFPEQKEYLLDLAEEIESQIRSLSGVDVEDVRKFLDKEWAWVKELLAEHPAELAEVEAARAARLAELRAEVEWKVAA | 0.539 |
| L39F (designed binder) MTLQELLREEALRRAEAEAFRYALELLAEKFPEQKEYLFDLAEEIESQIRSLSGVDVEDVRKFLDKEWAWVKELLAEHPAELAEVEAARAARLAELRAEVEAKVAA | 0.189 |
| L96I (designed binder) MTLQELLREEALRRAEAEAFRYALELLAEKFPEQKEYLLDLAEEIESQIRSLSGVDVEDVRKFLDKEWAWVKELLAEHPAELAEVEAARAARLAEIRAEVEAKVAA | 0.869 |
| R61M (designed binder) MTLQELLREEALRRAEAEAFRYALELLAEKFPEQKEYLLDLAEEIESQIRSLSGVDVEDVMKFLDKEWAWVKELLAEHPAELAEVEAARAARLAELRAEVEAKVAA | 0.593 |
| R89D (designed binder) MTLQELLREEALRRAEAEAFRYALELLAEKFPEQKEYLLDLAEEIESQIRSLSGVDVEDVRKFLDKEWAWVKELLAEHPAELAEVEAADAARLAELRAEVEAKVAA | 2.48 |
| A28P (designed binder) MTLQELLREEALRRAEAEAFRYALELLPEKFPEQKEYLLDLAEEIESQIRSLSGVDVEDVRKFLDKEWAWVKELLAEHPAELAEVEAARAARLAELRAEVEAKVAA | 2.05 |
| Y37G (designed binder) MTLQELLREEALRRAEAEAFRYALELLAEKFPEQKEGLLDLAEEIESQIRSLSGVDVEDVRKFLDKEWAWVKELLAEHPAELAEVEAARAARLAELRAEVEAKVAA | 5.31 |

The next lines start with the values.

| apparent Kd (screen) [nM] | Binder |
| --- | --- |
| 2.48 | L41Q (designed binder) MTLQELLREEALRRAEAEAFRYALELLAEKFPEQKEYLLDQAEEIESQIRSLSGVDVEDVRKFLDKEWAWVKELLAEHPAELAEVEAARAARLAELRAEVEAKVAA |
| 5.31 | Q34D (designed binder) MTLQELLREEALRRAEAEAFRYALELLAEKFPEDKEYLLDLAEEIESQIRSLSGVDVEDVRKFLDKEWAWVKELLAEHPAELAEVEAARAARLAELRAEVEAKVAA |
| 0.593 | H78G (designed binder) MTLQELLREEALRRAEAEAFRYALELLAEKFPEQKEYLLDLAEEIESQIRSLSGVDVEDVRKFLDKEWAWVKELLAEGPAELAEVEAARAARLAELRAEVEAKVAA |
| 4.39 | Y22P (designed binder) MTLQELLREEALRRAEAEAFRPALELLAEKFPEQKEYLLDLAEEIESQIRSLSGVDVEDVRKFLDKEWAWVKELLAEHPAELAEVEAARAARLAELRAEVEAKVAA |
| 20.2 | E44G (designed binder) MTLQELLREEALRRAEAEAFRYALELLAEKFPEQKEYLLDLAEGIESQIRSLSGVDVEDVRKFLDKEWAWVKELLAEHPAELAEVEAARAARLAELRAEVEAKVAA |
